Values of other authors as cited in patent publication US7208138B2, “Contrast enhancement agent for magnetic resonance imaging” (Duke University, priority 2001, dated 2007).

How the values were obtained:
[1] = time to clearance of one half from the bloodstream
[2] = fraction of the relaxivity of free gadolinium ion
TG = molecular target: T1, TG (Homo sapiens, UniProt P21980)
T1 sequence (P21980 1-687): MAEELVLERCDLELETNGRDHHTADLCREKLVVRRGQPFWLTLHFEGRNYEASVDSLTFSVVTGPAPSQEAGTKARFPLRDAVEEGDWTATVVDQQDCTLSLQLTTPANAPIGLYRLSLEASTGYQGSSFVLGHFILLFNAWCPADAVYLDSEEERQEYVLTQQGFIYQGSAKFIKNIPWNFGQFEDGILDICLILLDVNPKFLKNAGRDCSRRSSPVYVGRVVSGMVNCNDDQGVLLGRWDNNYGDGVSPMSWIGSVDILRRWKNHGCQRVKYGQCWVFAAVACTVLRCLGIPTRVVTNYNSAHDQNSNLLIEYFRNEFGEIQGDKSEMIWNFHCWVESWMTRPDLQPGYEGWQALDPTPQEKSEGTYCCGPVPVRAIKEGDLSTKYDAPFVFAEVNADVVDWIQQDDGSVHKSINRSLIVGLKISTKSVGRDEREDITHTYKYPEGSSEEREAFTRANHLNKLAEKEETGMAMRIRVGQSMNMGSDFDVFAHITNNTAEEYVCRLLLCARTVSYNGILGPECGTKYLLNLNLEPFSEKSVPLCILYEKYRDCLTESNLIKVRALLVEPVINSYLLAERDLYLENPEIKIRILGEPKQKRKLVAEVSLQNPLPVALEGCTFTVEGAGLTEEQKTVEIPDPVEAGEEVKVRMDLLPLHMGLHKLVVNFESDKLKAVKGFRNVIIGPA

fXIIIa = molecular target: T2, fXIIIa (Homo sapiens, UniProt P00488)
T2 sequence (P00488 39-732 limits assumed): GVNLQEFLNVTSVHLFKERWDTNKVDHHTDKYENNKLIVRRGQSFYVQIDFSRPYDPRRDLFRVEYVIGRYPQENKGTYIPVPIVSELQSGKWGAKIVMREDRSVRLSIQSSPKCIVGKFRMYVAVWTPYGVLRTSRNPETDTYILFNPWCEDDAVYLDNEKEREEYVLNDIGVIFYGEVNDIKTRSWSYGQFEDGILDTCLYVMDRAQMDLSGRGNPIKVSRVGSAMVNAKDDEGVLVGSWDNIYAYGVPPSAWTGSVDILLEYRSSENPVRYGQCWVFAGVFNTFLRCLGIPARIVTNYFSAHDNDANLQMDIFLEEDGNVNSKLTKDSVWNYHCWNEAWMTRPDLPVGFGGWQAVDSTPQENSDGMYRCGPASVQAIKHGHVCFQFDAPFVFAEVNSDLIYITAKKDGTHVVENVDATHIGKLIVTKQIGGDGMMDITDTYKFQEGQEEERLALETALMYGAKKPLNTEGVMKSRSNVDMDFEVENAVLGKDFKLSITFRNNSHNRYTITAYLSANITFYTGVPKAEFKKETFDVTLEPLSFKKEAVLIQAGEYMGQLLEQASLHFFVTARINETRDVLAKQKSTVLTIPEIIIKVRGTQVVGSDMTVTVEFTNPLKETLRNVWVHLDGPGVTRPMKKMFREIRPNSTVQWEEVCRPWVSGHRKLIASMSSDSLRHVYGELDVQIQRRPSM

Compound	cleared from the bloodstream (½) [1] [min]	relaxivity of the complex relative to free gadolinium ion [2]	TG crosslinking / recognition (TG)	fXIIIa crosslinking / recognition (fXIIIa)
O=C([O-])CN(CCN(CC(=O)[O-])CC(=O)[O-])CCN(CC(=O)[O-])CC(=O)[O-].[Gd+3] [Gd-DTPA]	20	about one-half		
SEQ ID NO: 3: peptide NGEQVSP, glycine at position 2; control peptide in crosslinking assays (listed as Homo sapiens)			inert	inert
SEQ ID NO: 2: peptide of amino acid sequence NQEQVSP, the TG and fXIIIa crosslinking motif (listed as Homo sapiens)			recognized	recognized
